How the values were obtained:
HeLa Kyoto [1] = test: thermal stability score vs G1/S (z-score of summed log2 fold changes over temperatures); higher = more thermally stable than in G1/S
HeLa Kyoto [2] = test: melting temperature (median over replicates), in situ; higher = more thermally stable
[3] = cell cycle stage: early G1 (4.5 h after nocodazole release)
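Wherever melting temperature (median over replicates), in situ is given: HeLa Kyoto cells synchronized by double thymidine or nocodazole block, proteins quantified by TMT10plex mass spectrometry, three independent biological replicates.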
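Wherever thermal stability score vs G1/S (z-score of summed log2 fold changes over temperatures) is given: synchronized HeLa Kyoto cells, proteins quantified by TMT10plex mass spectrometry, three biological replicates, mitosis taken 0.5 h after nocodazole release, G1/S directly after double thymidine block.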

UBE2V1, sequence (chain, as listed by the source): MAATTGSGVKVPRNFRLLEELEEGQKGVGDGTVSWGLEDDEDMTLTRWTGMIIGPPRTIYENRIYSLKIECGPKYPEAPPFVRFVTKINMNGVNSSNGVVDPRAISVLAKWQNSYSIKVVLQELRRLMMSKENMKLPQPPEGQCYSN

Substance | thermal stability score (HeLa Kyoto [1]; [3]) | thermal stability score (HeLa Kyoto [1]; cell cycle stage: mitosis) | melting temperature (HeLa Kyoto [2]; cell cycle stage: G1/S) | melting temperature (HeLa Kyoto [2]; cell cycle stage: mitosis)
ITM2B | 5.19 | 0.613 | 55.2 °C | 54.7 °C
MAAACGPGAAGYCLLLGLHLFLLTAGPALGWNDPDRMLLRDVKALTLHYDRYTTSRRLDPIPQLKCVGGTAGCDSYTPKVIQCQNKGWDGYDVQWECKTDLDIAYKFGKTVVSCEGYESSEDQYVLRGSCGLEYNLDYTELGLQKLKESGKQHGFASFSDYYYKWSSADSCNMSGLITIVVLLGIAFVVYKLFLSDGQYSPPPYSEYPPFSHRYQRFTNSAGPPPPGFKSEFTGPQNTGHGATSGFGSAFTGQQGYENSGPGFWTGLGTGGILGYLFGSNRAATPFSDSWYYPSYPPSYPGTWNRAYSPLHGGSGSYSVCSNSDTKTRTASGYGGTRRR [SARAF] | -0.125 | 0.434 | 52 °C | 53.3 °C
MGFIFSKSMNESMKNQKEFMLMNARLQLERQLIMQSEMRERQMAMQIAWSREFLKYFGTFFGLAAISLTAGAIKKKKPAFLVPIVPLSFILTYQYDLGYGTLLERMKGEAEDILETEKSKLQLPRGMITFESIEKARKEQSRFFIDK [PLGRKT] |  |  | 56.5 °C | 55.5 °C
MGGCVGAQHDSSGSLNENSEGTGVALGRNQPLKKEKPKWKSDYPMTDGQLRSKRDEFWDTAPAFEGRKEIWDALKAAAHAFESNDHELAQAIIDGANITLPHGALTECYDELGNRYQLPVYCLAPPINMIEEKSDIETLDIPEPPPNSGYECQLRLRLSTGKDLKLVVRSTDTVFHMKRRLHAAEGVEPGSQRWFFSGRPLTDKMKFEELKIPKDYVVQVIVSQPVQNPTPVEN [UBTD2] |  |  |  | 53.7 °C
MGRLLRAARLPPLLSPLLLLLVGGAFLGACVAGSDEPGPEGLTSTSLLDLLLPTGLEPLDSEEPSETMGLGAGLGAPGSGFPSEENEESRILQPPQYFWEEEEELNDSSLDLGPTADYVFPDLTEKAGSIEDTSQAQELPNLPSPLPKMNLVEPPWHMPPREEEEEEEEEEEREKEEVEKQEEEEEEELLPVNGSQEEAKPQVRDFSLTSSSQTPGATKSRHEDSGDQASSGVEVESSMGPSLLLPSVTPTTVTPGDQDSTSQEAEATVLPAAGLGVEFEAPQEASEEATAGAAGLSGQHEEVPALPSFPQTTAPSGAEHPDEDPLGSRTSASSPLAPGDMELTPSSATLGQEDLNQQLLEGQAAEAQSRIPWDSTQVICKDWSNLAGKNYIILNMTENIDCEVFRQHRGPQLLALVEEVLPRHGSGHHGAWHISLSKPSEKEQHLLMTLVGEQGVVPTQDVLSMLGDIRRSLEEIGIQNYSTTSSCQARASQVRSDYGTLFVVLVVIGAICIIIIALGLLYNCWQRRLPKLKHVSHGEELRFVENGCHDNPTLDVASDSQSEMQEKHPSLNGGGALNGPGSWGALMGGKRDPEDSDVFEEDTHL [PODXL2] |  |  | 54 °C | 
MLGSRAAGFARGLRAVALAWLPGWRGRSFALARAAGAPHGGDLQPPACPEPRGRQLSLSAAAVVDSAPRPLQPYLRLMRLDKPIGTWLLYLPCTWSIGLAAEPGCFPDWYMLSLFGTGAILMRGAGCTINDMWDQDYDKKVTRTANRPIAAGDISTFQSFVFLGGQLTLALGVLLCLNYYSIALGAGSLLLVITYPLMKRISYWPQLALGLTFNWGALLGWSAIKGSCDPSVCLPLYFSGVMWTLIYDTIYAHQDKRDDVLIGLKSTALRFGENTKPWLSGFSVAMLGALSLVGVNSGQTAPYYAALGAVGAHLTHQIYTLDIHRPEDCWNKFISNRTLGLIVFLGIVLGNLWKEKKTDKTKKGIENKIEN [COQ2] |  |  | 55.1 °C | 
MLLATLLLLLLGGALAHPDRIIFPNHACEDPPAVLLEVQGTLQRPLVRDSRTSPANCTWLILGSKEQTVTIRFQKLHLACGSERLTLRSPLQPLISLCEAPPSPLQLPGGNVTITYSYAGARAPMGQGFLLSYSQDWLMCLQEEFQCLNHRCVSAVQRCDGVDACGDGSDEAGCSSDPFPGLTPRPVPSLPCNVTLEDFYGVFSSPGYTHLASVSHPQSCHWLLDPHDGRRLAVRFTALDLGFGDAVHVYDGPGPPESSRLLRSLTHFSNGKAVTVETLSGQAVVSYHTVAWSNGRGFNATYHVRGYCLPWDRPCGLGSGLGAGEGLGERCYSEAQRCDGSWDCADGTDEEDCPGCPPGHFPCGAAGTSGATACYLPADRCNYQTFCADGADERRCRHCQPGNFRCRDEKCVYETWVCDGQPDCADGSDEWDCSYVLPRKVITAAVIGSLVCGLLLVIALGCTCKLYAIRTQEYSIFAPLSRMEAEIVQQQAPPSYGQLIAQGAIPPVEDFPTENPNDNSVLGNLRSLLQILRQDMTPGGGPGARRRQRGRLMRRLVRRLRRWGLLPRTNTPARASEARSQVTPSAAPLEALDGGTGPAREGGAVGGQDGEQAPPLPIKAPLPSASTSPAPTTVPEAPGPLPSLPLEPSLLSGVVQALRGRLLPSLGPPGPTRSPPGPHTAVLALEDEDDVLLVPLAEPGVWVAEAEDEPLLT [LRP10] |  |  | 54.7 °C | 
MNQENPPPYPGPGPTAPYPPYPPQPMGPGPMGGPYPPPQGYPYQGYPQYGWQGGPQEPPKTTVYVVEDQRRDELGPSTCLTACWTALCCCCLWDMLT [CYSTM1] |  |  | 59 °C | 52.8 °C
MQPPPPGPLGDCLRDWEDLQQDFQNIQETHRLYRLKLEELTKLQNNCTSSITRQKKRLQELALALKKCKPSLPAEAEGAAQELENQMKERQGLFFDMEAYLPKKNGLYLSLVLGNVNVTLLSKQAKFAYKDEYEKFKLYLTIILILISFTCRFLLNSRVTDAAFNFLLVWYYCTLTIRESILINNGSRIKGWWVFHHYVSTFLSGVMLTWPDGLMYQKFRNQFLSFSMYQSFVQFLQYYYQSGCLYRLRALGERHTMDLTVEGFQSWMWRGLTFLLPFLFFGHFWQLFNALTLFNLAQDPQCKEWQVLMCGFPFLLLFLGNFFTTLRVVHHKFHSQRHGSKKD [TMEM120A] |  |  | 54.2 °C | 53.4 °C
MQPPPPGPLGDCLRDWEDLQQDFQNIQETHRLYRLKLEELTKLQNNCTSSITRQKKRLQELALALKKCKPSLPAEAEGAAQELENQMKERQGLFFDMEAYLPKKNGLYLSLVLGNVNVTLLSKQAKFAYKDEYEKFKLYLTIILILISFTCRFLLNSRVTDAAFNFLLVWYYCTLTIRESILINNGSRIKGWWVFHHYVSTFLSGVMLTWPDGLMYQKFRNQFLSFSMYQSFVQFLQYYYQSGCLYRLRALGERHTMDLTVEGFQSWMWRGLTFLLPFLFFGHFWQLFNALTLFNLAQDPQCKEWQVLMCGFPFLLLFLGNFFTTLRVVHHKFHSQRHGSKKD [TMPIT] |  |  | 54.2 °C | 53.4 °C
MRRAGLGEGVPPGNYGNYGYANSGYSACEEENERLTESLRSKVTAIKSLSIEIGHEVKTQNKLLAEMDSQFDSTTGFLGKTMGKLKILSRGSQTKLLCYMMLFSLFVFFIIYWIIKLR [BET1] |  |  | 54.7 °C | 54.9 °C
MSPLSAARAALRVYAVGAAVILAQLLRRCRGGFLEPVFPPRPDRVAIVTGGTDGIGYSTAKHLARLGMHVIIAGNNDSKAKQVVSKIKEETLNDKVEFLYCDLASMTSIRQFVQKFKMKKIPLHVLINNAGVMMVPQRKTRDGFEEHFGLNYLGHFLLTNLLLDTLKESGSPGHSARVVTVSSATHYVAELNMDDLQSSACYSPHAAYAQSKLALVLFTYHLQRLLAAEGSHVTANVVDPGVVNTDVYKHVFWATRLAKKLLGWLLFKTPDEGAWTSIYAAVTPELEGVGGHYLYNEKETKSLHVTYNQKLQQQLWSKSCEMTGVLDVTL [DHRSX] |  |  |  | 52.9 °C
MSRFFTTGSDSESESSLSGEELVTKPVGGNYGKQPLLLSEDEEDTKRVVRSAKDKRFEELTNLIRTIRNAMKIRDVTKCLEEFELLGKAYGKAKSIVDKEGVPRFYIRILADLEDYLNELWEDKEGKKKMNKNNAKALSTLRQKIRKYNRDFESHITSYKQNPEQSADEDAEKNEEDSEGSSDEDEDEDGVSAATFLKKKSEAPSGESRKFLKKMDDEDEDSEDSEDDEDWDTGSTSSDSDSEEEEGKQTALASRFLKKAPTTDEDKKAAEKKREDKAKKKHDRKSKRLDEEEEEDNEGGEWERVRGGVPLVKEKPKMFAKGTEITHAVVIKKLNEILQARGKKGTDRAAQIELLQLLVQIAAENNLGEGVIVKIKFNIIASLYDYNPNLATYMKPEMWGKCLDCINELMDILFANPNIFVGENILEESENLHNADQPLRVRGCILTLVERMDEEFTKIMQNTDPHSQEYVEHLKDEAQVCAIIERVQRYLEEKGTTEEVCRIYLLRILHTYYKFDYKAHQRQLTPPEGSSKSEQDQAENEGEDSAVLMERLCKYIYAKDRTDRIRTCAILCHIYHHALHSRWYQARDLMLMSHLQDNIQHADPPVQILYNRTMVQLGICAFRQGLTKDAHNALLDIQSSGRAKELLGQGLLLRSLQERNQEQEKVERRRQVPFHLHINLELLECVYLVSAMLLEIPYMAAHESDARRRMISKQFHHQLRVGERQPLLGPPESMREHVVAASKAMKMGDWKTCHSFIINEKMNGKVWDLFPEADKVRTMLVRKIQEESLRTYLFTYSSVYDSISMETLSDMFELDLPTVHSIISKMIINEELMASLDQPTQTVVMHRTEPTAQQNLALQLAEKLGSLVENNERVFDHKQGTYGGYFRDQKDGYRKNEGYMRRGGYRQQQSQTAY [EIF3CL] |  |  | 49 °C | 48.9 °C
MSSKRTKTKTKKRPQRATSNVFAMFDQSQIQEFKEAFNMIDQNRDGFIDKEDLHDMLASLGKNPTDEYLDAMMNEAPGPINFTMFLTMFGEKLNGTDPEDVIRNAFACFDEEATGTIQEDYLRELLTTMGDRFTDEEVDELYREAPIDKKGNFNYIEFTRILKHGAKDKDD [MYL12A] |  |  | 54 °C | 52.7 °C
MSTRKRRGGAINSRQAQKRTREATSTPEISLEAEPIELVETAGDEIVDLTCESLEPVVVDLTHNDSVVIVDERRRPRRNARRLPQDHADSCVVSSDDEELSRDRDVYVTTHTPRNARDEGATGLRPSGTVSCPICMDGYSEIVQNGRLIVSTECGHVFCSQCLRDSLKNANTCPTCRKKINHKRYHPIYI [RNF4] |  |  | 53.2 °C | 
MTVKTEAAKGTLTYSRMRGMVAILIAFMKQRRMGLNDFIQKIANNSYACKHPEVQSILKISQPQEPELMNANPSPPPSPSQQINLGPSSNPHAKPSDFHFLKVIGKGSFGKVLLARHKAEEVFYAVKVLQKKAILKKKEEKHIMSERNVLLKNVKHPFLVGLHFSFQTADKLYFVLDYINGGELFYHLQRERCFLEPRARFYAAEIASALGYLHSLNIVYRDLKPENILLDSQGHIVLTDFGLCKENIEHNSTTSTFCGTPEYLAPEVLHKQPYDRTVDWWCLGAVLYEMLYGLPPFYSRNTAEMYDNILNKPLQLKPNITNSARHLLEGLLQKDRTKRLGAKDDFMEIKSHVFFSLINWDDLINKKITPPFNPNVSGPNDLRHFDPEFTEEPVPNSIGKSPDSVLVTASVKEAAEAFLGFSYAPPTDSFL [SGK1] |  |  |  | 48.3 °C
MVGGGGVGGGLLENANPLIYQRSGERPVTAGEEDEQVPDSIDAREIFDLIRSINDPEHPLTLEELNVVEQVRVQVSDPESTVAVAFTPTIPHCSMATLIGLSIKVKLLRSLPQRFKMDVHITPGTHASEHAVNKQLADKERVAAALENTHLLEVVNQCLSARS [FAM96B] |  |  | 50.3 °C | 52.7 °C
TPK1 |  |  | 56.3 °C | 55.6 °C
UBE2V1 |  |  | 54.2 °C | 

From the supplement of paper PMC5998384
